The source of these data is PMC5551578 (The Journal of Experimental Medicine, 2017).

This assay concerns the target H1N1 HA (A/California/04/2009) (Influenza A virus A/California/04/2009 …, UniProt C3W5S1, strain).

Numbering of substitutions follows the chain as printed.

B1: H1-Ab9 (antibody, V domains shown)
VH: EVQLVESGAEVKKPGAPVKVSCKASGYTFTRYYIHWVRQAPGQGLEWMGWINPDSGDTKCAQRFQGRVTMTRDTSVSTAYMELRRLGSDDTALYYCARIQLRSDGFDLWGQGTLVTVSS
VL: QSALTQPASVSGSPGQSITISCTGTSSDIGSYKFVSWYQQHPGKAPKVMIYEVTQRPSGVSNRFSGSKSGNTASLTISGLQAEDEADYYCCSYAGSSFWVFGGGTTLTVP
Regarding B1, the binding result was “binds”.

B2: H1-Ab16 (antibody, V domains shown)
VH: EVQLVESGAEVKKPGSSVKVSCTASGGAFNSHTISWLRQTPGQGLEWMGRIIPILGMANYAQKFHGRVTITADISTNTAYMELSSLRSEDTAVYSCAGGTSRWFGDVEYWGQGSLVTVSS
VL: EIVLTQSPLSLPVTLGQPASISCRSSQSLVFSDGNTYLSWFHQRPGQAPRRLIYKVSDRDSGVPDRFSGSGSGTDFTLKISRVEAEDVGVYYCMQGSHWPPSFGPGTKVEIK
For B2, the binding result was “binds”.

B3: H1-Ab15 (antibody, V domains shown)
VH: EVQLVESGAEVKKPGSSVTVSCKASGNIFNSYTVSWVRQVPGQGLEWVARVIPTIGMSNYAPKLQGRVTVTADRSTNTAYMEVTSLRSEDTAVYYCATGPSYYYDANGSPTDYWGQGTLVTVSS
VL: DIQMTQSSATLSVSPGETATLSCRASQSVSSHLVWYQQKPGQAPRLIIYGASTRATGIPVRFSGSRSGTEFTLTISSLQSEDFAIYYCQQYNNWPWTFGQGTKVEIK
With B3, the binding result is “binds”.

B4: H1-Ab1 (antibody, V domains shown)
VH: EVQLVQSGAEVKKPGASVKVSCKASGYIFTSYGISWVRLAPGQGLEWMGWISGYNSNTNYAQKFQGRVTVTADTSTSTAYMELRSLRSDDTAVYYCARDRAHILTGYHFDCWGQGTLVTVSS
VL: DIQMTQSPLSLPVTLGQPASISCRSSQSLVYIDGNTYLNWFQQRPGQSPRRLIYKVSNRDSGVPDRFSGSGSGTDFTLKISSVEAEDVGVYYCMQGTHWPPYTFGQGTKVEIK
Regarding B4, the binding result was “binds”.

B5: H1-Ab3 (antibody, V domains shown)
VH: B4 VH with Q6E, K13R, I28T, L39Q, G53A, S56G, F64L, T69I, V70M, A72T
VL: DIVMTQSPGTLSLSPGERATLSCGASQSVTSSYLAWYQQKPGQAPRLLIYDAPSRATGIPDRFSGSGSGTDFTLTISRLEPEDFAVYYCQQYGSSHVITFGQGTDWRLN
In the case of B5, the binding result was “binds”.

B6: H1-Ab2 (antibody, V domains shown)
VH: B4 VH with K13R, I28T, L39Q, G53A, S56G, F64L, T69I, V70M, A72T, C111Y
VL: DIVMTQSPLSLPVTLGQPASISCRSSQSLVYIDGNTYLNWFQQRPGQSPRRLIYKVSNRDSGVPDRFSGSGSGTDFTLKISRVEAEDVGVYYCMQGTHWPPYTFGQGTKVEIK
Turning to B6, the binding result is reported as “binds”.

B7: H1-Ab4 (antibody, V domains shown)
VH: EVQLVESGGALRKPGASVRVSCRSSGYRFTSNGISWVRQAPGRGLEWMGWISANSGNTFYAQKFQGRVTMTTDTSASTAYVELRRLRPDDTAMYYCARDVHYRFDSWGQGTLVTVSS
VL: QSVLTQPPSASGSPGQSVAISCTGSSSDVGGYDWVSWYQQYPGKGPKLIIYEVNKRPPGVPDRFSGSKSGNTASLTVSGLQTEDEADYYCSSYAGGSRVFGGGTKLTVL
As to B7, the binding result is reported as “binds”.

B8: H1-Ab11 (antibody, V domains shown)
VH: QVQLVQSGAEVKKPGSSVKVSCKASGVTFDTYAFSWVRQAPGQGLEWMGGISPIFTTTNYAQTFQGRVTITADKSTSTAYMELSSLISEDTAVYYCAKGGPTTGTPYYVFGLDVWGQGTMVTVSF
VL: DIVMTQSPLSSPVTLGQPASISCRSSQSLVHSDGNTYLSWLHQRPGQPPRLLIYKISNRFSGVPDRFTGSGAGTDFTLKISRVEAEDVGVYYCMQATQFQTFGQGTKVEIK
As to B8, the binding result was “binds”.

B9: H1-Ab8 (antibody, V domains shown)
VH: EVQLVQSGAEVKKPGASVKVSCKASGYTFADYYIHWVRQAPGQGLEWMGWINPNSGDTNYAQKFQGRVTMTRDTSISTGDMELSRLRSDDTAVYYCARANRGGYFAWAFFDFWGQGTLVTVSS
VL: EIVLTQSPGTLSLSPGERATLSCRASQSVSSRNLAWYQQKPGQAPRLLIYGASSRATGIPDRFSGSGSGTDFILSISRLEPEDFAVYYCQQYGSSPLTFGGGTKVEIK
As for B9, the binding result is recorded as “binds”.
